Patent US20250236682A1

Columns and labels:
[1] = biological target: HER2 on human cancer cell lines (NCI-N87, BT474, SK-OV-3, SNU-1, SNU-5, SNU-601) (human) (UniProt P04626); assay: flow cytometry Fc load, BT474 cells
[2] = biological target: HER2 on human cancer cell lines (NCI-N87, BT474, SK-OV-3, SNU-1, SNU-5, SNU-601) (human) (UniProt P04626); assay: flow cytometry Fc load, SNU-1 cells
[3] = biological target: HER2 on human cancer cell lines (NCI-N87, BT474, SK-OV-3, SNU-1, SNU-5, SNU-601) (human) (UniProt P04626); assay: flow cytometry Fc load, SNU-5 cells
[4] = biological target: HER2 on human cancer cell lines (NCI-N87, BT474, SK-OV-3, SNU-1, SNU-5, SNU-601) (human) (UniProt P04626); assay: flow cytometry Fc load, NCI-N87 cells
[5] = biological target: HER2 on human cancer cell lines (NCI-N87, BT474, SK-OV-3, SNU-1, SNU-5, SNU-601) (human) (UniProt P04626); assay: flow cytometry Fc load, SK-OV-3 cells
[6] = biological target: human HER2 recombinant protein (R&D systems, 1129-ER) (human) (UniProt P04626); assay: BLI sequential binding on HER2-loaded sensor
[7] = biological target: human FcγRI (R&D systems, 1257-FC) (human) (UniProt P12314); assay: BLI, His-FcγRI on HIS1K sensor
[8] = biological target: human FcγIIA (R&D systems, 1330-CD) (human) (UniProt P12318); assay: BLI, His-FcγRIIA on HIS1K sensor
[9] = biological target: HER2 on human cancer cell lines (NCI-N87, BT474, SK-OV-3, SNU-1, SNU-5, SNU-601) (human) (UniProt P04626); assay: flow cytometry Fc load, SNU5 cells
[10] = biological target: HER2 on human cancer cell lines (NCI-N87, BT474, SK-OV-3, SNU-1, SNU-5, SNU-601) (human) (UniProt P04626); assay: flow cytometry Fc load, SNU601 cells
[11] = biological target: human HER2 on CT26-HER2 cell line (Clone #2-60) (human) (UniProt P04626); assay: flow cytometry Fc load, CT26-HER2 (#2-60) cells

Chain of human FcγIIA (R&D systems, 1330-CD) (human) (P12318 36-218 H167R): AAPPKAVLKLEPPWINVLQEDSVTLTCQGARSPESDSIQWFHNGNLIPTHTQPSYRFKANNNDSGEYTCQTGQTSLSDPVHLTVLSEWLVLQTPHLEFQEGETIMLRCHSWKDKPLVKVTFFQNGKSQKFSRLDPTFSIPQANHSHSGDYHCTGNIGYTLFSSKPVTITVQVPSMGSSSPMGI
Chain of human FcγRI (R&D systems, 1257-FC) (human) (P12314 16-288 limits assumed): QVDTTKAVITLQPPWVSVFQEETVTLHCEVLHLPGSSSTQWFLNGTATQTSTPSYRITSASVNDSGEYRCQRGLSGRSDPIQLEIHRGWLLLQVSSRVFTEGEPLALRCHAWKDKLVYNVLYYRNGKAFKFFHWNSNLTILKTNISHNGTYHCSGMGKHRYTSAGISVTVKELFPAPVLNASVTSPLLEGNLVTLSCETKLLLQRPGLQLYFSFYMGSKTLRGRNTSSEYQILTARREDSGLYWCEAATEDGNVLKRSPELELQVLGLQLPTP

| GMFI [1] | GMFI [2] | GMFI [3] | GMFI [4] | GMFI [5] | binding signal (nm shift, value at 4140 s minus value at 1260 s) [6] | Kd [7] | Kd [8] | GMFI [9] | GMFI [10] | GMFI [11] | Substance |
| --- | --- | --- | --- | --- | --- | --- | --- | --- | --- | --- | --- |
| 38700 | 2690 | 1390 | 137000 | 6450 | 0.923 nm | – | – | – | – | – | trastuzumab + pertuzumab (combination) |
| – | – | – | – | – | – | 2.46 nM | 310 nM | 101 | 173 | 150 | human IgG1 (Bio X cell, BE0297) (antibody) |
| – | – | – | – | – | – | – | 359 nM | – | – | – | pertuzumab (antibody) |
